In paper PMC3267840:

Columns and labels:
Assay in all cases: purified protein
CC(=O)NCCc1ccc(O)c(O)c1 = type: biochemical, Tribolium castaneum; conditions: pH 5.5, 0.1 M sodium acetate
[1] = tested on: NCCC(=O)NCCc1ccc(O)c(O)c1; type: biochemical, Tribolium castaneum; conditions: pH 5.5, 0.1 M sodium acetate
Oc1ccc(O)cc1 = type: biochemical, Tribolium castaneum; conditions: pH 5.5, 0.1 M sodium acetate (pH optimum not determined)
Oc1ccccc1O = type: biochemical, Tribolium castaneum; conditions: pH 5.5, 0.1 M sodium acetate (pH optimum not determined)
NCCc1ccc(O)c(O)c1 = type: biochemical, Tribolium castaneum; conditions: pH 6.0, 0.1 M Mes
purified protein [2] = substrate: CC(=O)NCCc1ccc(O)c(O)c1; type: biochemical, Tribolium castaneum; conditions: pH 5.5, 0.1 M sodium acetate; remark: listed apart in the source
purified protein [3] = substrate: Oc1ccccc1O; type: biochemical, Tribolium castaneum; conditions: pH 5.5, 0.1 M sodium acetate (pH optimum not determined); remark: listed apart in the source
purified protein [4] = substrate: NCCc1ccc(O)c(O)c1; type: biochemical, Tribolium castaneum; conditions: pH 5.5, 0.1 M sodium acetate
purified protein [5] = substrate: NCCC(=O)NCCc1ccc(O)c(O)c1; type: biochemical, Tribolium castaneum; conditions: pH 5.5, 0.1 M sodium acetate; remark: listed apart in the source
purified protein [6] = substrate: Oc1ccc(O)cc1; type: biochemical, Tribolium castaneum; conditions: pH 5.5, 0.1 M sodium acetate (pH optimum not determined); remark: listed apart in the source
purified protein [7] = substrate: CC(=O)NCCc1ccc(O)c(O)c1; type: biochemical, Anopheles gambiae
purified protein [8] = substrate: NCCc1ccc(O)c(O)c1; type: biochemical, Anopheles gambiae
purified protein [9] = substrate: NCCC(=O)NCCc1ccc(O)c(O)c1; type: biochemical, Anopheles gambiae; conditions: pH 5.5, 0.1 M sodium acetate
purified protein [10] = substrate: Oc1ccc(O)cc1; type: biochemical, Anopheles gambiae; conditions: pH 5.5, 0.1 M sodium acetate (pH optimum not determined)
purified protein [11] = substrate: Oc1ccccc1O; type: biochemical, Anopheles gambiae; conditions: pH 5.5, 0.1 M sodium acetate (pH optimum not determined)
purified protein [12] = substrate: N[C@@H](Cc1ccc(O)c(O)c1)C(=O)O; type: biochemical, Manduca sexta; conditions: pH 6.0, 0.1 M Mes, 0.1 % cetylpyridinium as activator

“TcLac2B (Tribolium castaneum; G182D/T93A)” gave a Km (CC(=O)NCCc1ccc(O)c(O)c1) of 0.6 mM, a kcat (CC(=O)NCCc1ccc(O)c(O)c1) of 5.5 s⁻¹ and a kcat/Km (CC(=O)NCCc1ccc(O)c(O)c1) of 9170 M⁻¹ s⁻¹. It also gave a Km [1] of 4 mM, a kcat [1] of 18.8 s⁻¹ and a kcat/Km [1] of 4700 M⁻¹ s⁻¹. The Km (Oc1ccc(O)cc1) was 2 mM, the kcat (Oc1ccc(O)cc1) was 9.2 s⁻¹ and the kcat/Km (Oc1ccc(O)cc1) was 4600 M⁻¹ s⁻¹. It also gave a Km (Oc1ccccc1O) of 12 mM, a kcat (Oc1ccccc1O) of 10.8 s⁻¹ and a kcat/Km (Oc1ccccc1O) of 900 M⁻¹ s⁻¹. The Km (NCCc1ccc(O)c(O)c1) was 2 mM, the kcat (NCCc1ccc(O)c(O)c1) was 7.5 s⁻¹ and the kcat/Km (NCCc1ccc(O)c(O)c1) was 3750 M⁻¹ s⁻¹.

B1: TcLac2A (Tribolium castaneum) (protein)
chain: VRAPGAKKKVGPIDQSAAAASWHDFDNSDFFQSEHAVIQTHPSIGGGPRFSSGGGRKAWKHLDFRNSAAAELLKNPSLSSPDECARACREGEPPRICYYHFTLELYTVLGAACQVCTPNATNTVWSHCQCVLADGVERGILTANRMIPGPSIQVCEGDKVVIDVENHIEGNEVTLHWHGVWQRGSQYYDGVPFVTQCPIQQGNTFRYQWIAGNAGTHFWHAHTGLQKMDGLYGSVVIRQPPAKDPNSHLYDYDLTTHVMLLSDWMHEDATERFPGRLAVNTGQDPESLLINGKGQFRDPNTGFMTNTPLEVFTITPGRRYRFRMINSFASVCPAQLTIQGHDLTLIATDGEPVHPVRVNTIISFSGERYDFVINADQTPGAYWIQLRGLGECGIRRVQQLGILRYAKGPYQPSQAPPTYDYGIPQGVVLNPLDARCNEIRPDAICVSQLKNALSIDKGILREKPDVKIFLPFRFHIYTPEDLFAPNTYNRHLVAPNGDHVISLIDEISYMAPPAPLISQYDDIDPQQFCNGDNRPADCQQNCMCTHKVDIPLNAIVEIVLVDEVQQPNLSHPFHLHGYAFNVIGIGRSPDQNVKKINLKHALDLDRQGLLHRQFNLPPAKDTIAVPNNGYVVLRLRANNPGFWLFHCHFLFHIVIGMNLVLQVGTHADLPPVPPNFPTCGDHVPEINSNPNLV
For B1, the Km (purified protein [2]) was 0.7 mM, the kcat (purified protein [2]) was 2.45 s⁻¹ and the kcat/Km (purified protein [2]) was 3500 M⁻¹ s⁻¹. It also gave a Km (purified protein [3]) of 6 mM, a kcat (purified protein [3]) of 4.03 s⁻¹ and a kcat/Km (purified protein [3]) of 667 M⁻¹ s⁻¹. The Km (purified protein [4]) was 0.8 mM, the kcat (purified protein [4]) was 0.683 s⁻¹ and the kcat/Km (purified protein [4]) was 850 M⁻¹ s⁻¹. It also gave a Km (purified protein [5]) of 1 mM, a kcat (purified protein [5]) of 2.75 s⁻¹ and a kcat/Km (purified protein [5]) of 2750 M⁻¹ s⁻¹. The Km (purified protein [6]) was 1 mM, the kcat (purified protein [6]) was 3.55 s⁻¹ and the kcat/Km (purified protein [6]) was 3550 M⁻¹ s⁻¹.

B2: AgMCO2A (Anopheles gambiae) (protein)
chain: VRVQQHTSRRFKDESFGHDQTPAGSWWSSHLTEPPSNFYQATHGLLQTHPSVPSLKPVAGAPAAPGPSALPLSSRKSPTVSSAAALNSGFPSIANPNPRSPFRHLDFSTSATAELRRNPSLSAPDECARACREGEPPRICYYHFTVEYYTVLGAACQVCTPNATNTVWSHCQCVLADGVERGILTVNRMIPGPSIQVCENDRVVIDVENHMEGMELTIHWHGIWQRGTQYYDGVPFVTQCPIQQGNTFRYQWTGNAGTHFWHAHTGLQKLDGLYGSIVVRQPPSRDPNSHLYDFDLTTHIMLVSDWLHEDAAERYPGRLAVNTGQDPESLLINGKGQFRDPNTGFMTNTPLEIFTITPGRRYRFRMINAFASVCPAQVTIEGHALTVIATDGEPVHPAQVNTIISFSGERYDFVITADQPVGAYWIQLRGLGECGIKRAQQLAILRYARGPYQPASPPPTYDVGLPQGVVMNPLDAQCNVQRDDAICVSQLKNAKEIDRALLQDKPDVKIFLPFRFYLYRPEELFQPNTYNRFLVAPTGDHVISLIDEISYLSAPAPLLSQYDDINPEQFCNGDNRPADCGANCMCTHKVDIPLNAIVEVVLVDEVQQPNLSHPFHLHGYAYNVVGIGRSPDSNVKKINLKHALDLDRRGLLHRQYNLPPLKDTIAVPNNGYVVLRFRADNPGFWLFHCHFLFHIVIGMNLILQVGTHADLPPVPPNFPTCGDHLPPIN
B2 gave a Km (purified protein [7]; pH 5.5, 0.1 M sodium acetate) of 0.3 mM, a kcat (purified protein [7]; pH 5.5, 0.1 M sodium acetate) of 1.53 s⁻¹ and a kcat/Km (purified protein [7]; pH 5.5, 0.1 M sodium acetate) of 5120 M⁻¹ s⁻¹. It also gave a Km (purified protein [8]; pH 7.5, 0.1 M sodium phosphate) of 0.5 mM, a kcat (purified protein [8]; pH 7.5, 0.1 M sodium phosphate) of 0.8 s⁻¹ and a kcat/Km (purified protein [8]; pH 7.5, 0.1 M sodium phosphate) of 1600 M⁻¹ s⁻¹. The Km (purified protein [9]) was 1 mM, the kcat (purified protein [9]) was 3.65 s⁻¹ and the kcat/Km (purified protein [9]) was 3650 M⁻¹ s⁻¹. It also gave a Km (purified protein [10]) of 2 mM, a kcat (purified protein [10]) of 3.82 s⁻¹ and a kcat/Km (purified protein [10]) of 1900 M⁻¹ s⁻¹.

B3: AgMCO2B (Anopheles gambiae) (protein)
chain: VRVQQHTSRRFKDESFGHDQTPAGSWWSSHLTEPPSNFYQATHGLLQTHPSVPSLKPVAGAPAAPGPSALPLSSRKSPTVSSAAALNSGFPSIANPNPRSPFRHLDFSTSATAELRRNPSLSAPDECARACREGEPPRICYYHFTVEYYTVLGAACQVCTPNATNTVWSHCQCVLADGVERGILTVNRMIPGPSIQVCENDRVVIDVENHMEGMELTIHWHGIWQRGTQYYDGVPFVTQCPIQQGNTFRYQWTGNAGTHFWHAHTGLQKLDGLYGSIVVRQPPSRDPNSHLYDFDLTTHIMLVSDWLHEDAAERYPGRLAVNTGQDPESLLINGKGQFRDPNTGFMTNTPLEIFTITPGRRYRFRMINAFASVCPAQVTIEGHALTVIATDGEPVHPVQVNTIISFSGERYDFVITADQPVGAYWIQLRGLGECGIKRAQQLAILRYARGPYQPASPPPTYDVGLPQGVVMNPLDAVCNVPRPDAVCVSNLRNAKKADKAVLSERPDVKIFLPFRFYFYRVEELFTPNTYNKFLVAPGGDHLISLIDEISYVSPPSPMLSQINDIPPEQFCNGDNRPPDCGPNCMCTHKVDIPLNAIVEVVLVDEVQQENLSHPFHLHGHAFHVIGMGRSPDSTVKKINLRHTLDLDRRGLLNRQFNLPPLKDTIAVPNNGYVVLRFRADNPGYWLFHCHFQFHIVIGMNLVVHIGTHADLPPVPPNFPRCGNHIPPIKYN
Work on B3 yielded a Km (purified protein [7]; pH 5.0, 0.1 M sodium acetate) of 0.7 mM, a kcat (purified protein [7]; pH 5.0, 0.1 M sodium acetate) of 2.12 s⁻¹ and a kcat/Km (purified protein [7]; pH 5.0, 0.1 M sodium acetate) of 3020 M⁻¹ s⁻¹. For the same molecule, the Km (purified protein [11]) was 4 mM, the kcat (purified protein [11]) was 2.98 s⁻¹ and the kcat/Km (purified protein [11]) was 750 M⁻¹ s⁻¹. For the same molecule, the Km (purified protein [8]; pH 5.5, 0.1 M sodium acetate) was 0.3 mM, the kcat (purified protein [8]; pH 5.5, 0.1 M sodium acetate) was 1.05 s⁻¹ and the kcat/Km (purified protein [8]; pH 5.5, 0.1 M sodium acetate) was 3500 M⁻¹ s⁻¹. For the same molecule, the Km (purified protein [9]) was 2 mM, the kcat (purified protein [9]) was 6.35 s⁻¹ and the kcat/Km (purified protein [9]) was 3170 M⁻¹ s⁻¹. For the same molecule, the Km (purified protein [10]) was 0.8 mM, the kcat (purified protein [10]) was 4.2 s⁻¹ and the kcat/Km (purified protein [10]) was 5250 M⁻¹ s⁻¹.

B4: phenoloxidase (prophenoloxidase from M. sexta hemolymph) (Manduca sexta) (protein)
chain 1: TDAKNNLLYFFDRPNEPCFMQKGEDKVVFEIPDHYYPDKYKSLSNTLSNRFGNEATKRIPIRNITLPNLEVPMQLPYNDQFSLFVPKHRTMAAKLIDIFMGMRDVEDLQSVCSYCQLRINPYMFNYCLSVAILHRPDTKGLSIPTFAETFPDKFMDSKVFLRAREVSNVVISGSRMPVNVPINYTANTTEPEQRVAYFREDIGINLHHWHWHLVYPFDSADRSIVNKDRRGELFYYMHQQIIGRYNVERMCNGLPQVKPFSDFSAPIEEGYFPKLDSQVASRTWPPRFAGSVFRNLDRTVDQVKIDVRKLFTWRDQFLEAIQKMAIKMPNGRELPLDEVTGIDMLGNLMESSIISPNRGYYGDLHNMGHVFAAYTHDPDHRHLEQFGVMGDSATAMRDPFFYRWHRFVDDVFNIYKEKLTPYTNERLDFPGVRVSSVGIEGARPNTLRTLWQQSTVELGRGLDFTPRGSVLARFTHLQHDEFQYVIEVNNTTGGNLMGTVRIFMAPKVDDNGQPMSFNKQRRLMIELDKFSQALRPGTNTIRRRSVDSSVTIPYERTFRNQSERPGDPGTAGAAEFDFCGCGWPHHMLIPKGTAQGYPVVLFVMISNWNNDRIEQDLVGSCNDAASYCGIRDRKYPDKQAMGYPFDRKMANDAATLSDFLRPNMAVRDCSIQFSDTTVERGQQG
chain 2: ADIFDSFELLYDRPGEPMINTKGEDKVLFELTEQFLTPEYANNGLELNNRFGDEEEVSRKIILKNLDKIPEFPKAKQLPNDADFSLFLPSHQEMANEVIDVLMSVTENQLQELLSTCVYARINLNPQLFNYCYTVAIMHRRDTGKVRVQNYAEIFPAKFLDSQVFTQAREAAAVIPKTIPRTPIIIPRDYTATDLEEEHRLAYWREDLGINLHHWHWHLVYPFSASDEKIVAKDRRGELFFYMHQQIIARYNCERLCNSLKRVKKFSDWREPIPEAYYPKLDSLTSARGWPPRQAGMRWQDLKRPVDGLNVTIDDMERYRRNIEEAIATGNVILPDKSTKKLDIDMLGNMMEASVLSPNRDLYGSIHNNMHSFSAYMHDPEHRYLESFGVIADEATTMRDPFFYRVHAWVDDIFQSFKEAPHNVRPYSRSQLENPGVQVTSVAVESAGGQQNVLNTFWMQSDVNLSKGLDFSDRGPVYARFTHLNHRPFRYVIKANNTASARRTTVRIFIAPKTDERNLPWALSDQRKMFIEMDRFVVPLSAGENTITRQSTESSLTIPFEQTFRDLSIQGSDPRRSELAAFNYCGCGWPQHMLVPKGTVGGVAYQLFVMLSNYELDKIEQPDGRELSCVEASMFCGLKDKKYPDARPMGYPFDRPSNSATNIEDFSAMSNMGLQDIVIKLSDVTEPNPRNPPA
Molecule B4 has a Km (purified protein [12]) of 2 mM and a kcat (purified protein [12]) of 361 min⁻¹.
